Data published in the supplement of paper PMC10567573.

B1: ZNF75A (parent)
chain: RTHTGEQPYTCSICRRNFSRRSSL

Variants of: B1
Assay: protein stability index of a GFP-peptide fusion (GPS, HEK-293T) (PSI 1-6); higher = more stable
Settings: c terminus: a fixed tail appended
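Note: lentivirally expressed fusions sorted by FACS into six bins by GFP to DsRed ratio, PSI derived from sequencing read proportions per bin multiplied by bin number.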

In order of rising protein stability index:
1. RTHTGEQPYTCSICRLNFSRRSSL [R16L]  1.27
2. RTHTGEQPYTCSICRCNFSRRSSL [R16C]  1.34
3. RTHTGEQPYTCSICRWNFSRRSSL [R16W]  1.37
4. RTHTGEQPYTCSICRHNFSRRSSL [R16H]  1.59
5. RTHTGEQPYTCSICRYNFSRRSSL [R16Y]  1.59
6. RTHTGEQPYTCSICRRNESRRSSL [F18E]  1.74
7. RTHTGEQPYTCSICRDNFSRRSSL [R16D]  1.78
8. RTHTGEQPYTCSICRVNFSRRSSL [R16V]  1.79
9. RTHTGEQPYTCSICRFNFSRRSSL [R16F]  1.81
10. RTHTGEQPYTCSICRSNFSRRSSL [R16S]  1.86
11. RTHTGEQPYTCSICRINFSRRSSL [R16I]  1.88
12. RTHTGEQPYTCSYCRRNFSRRSSL [I13Y]  1.96
13. RTHTGEQPYTCSICRNNFSRRSSL [R16N]  1.99
14. RTHTGEQPYTCSICRANFSRRSSL [R16A]  1.99
15. RTHTGEQPYTCSICRGNFSRRSSL [R16G]  2.05
16. RTHTGEQPKTCSICRRNFSRRSSL [Y9K]  2.17
17. RTHTGEQPYTCSICRRIFSRRSSL [N17I]  2.18
18. RTHTGEQPYTCSICRREFSRRSSL [N17E]  2.19
19. RTHTGEQPYTCSMCRRNFSRRSSL [I13M]  2.21
20. RTHTGEQPYTCSLCRRNFSRRSSL [I13L]  2.25
21. RTHTGEQPMTCSICRRNFSRRSSL [Y9M]  2.27
22. RTHTGEQPYTCSICRRNISRRSSL [F18I]  2.28
23. RTHTGEQPYTCSICRPNFSRRSSL [R16P]  2.3
24. RTHTGEQPYTCSICRRDFSRRSSL [N17D]  2.3
25. RTHTGEQPQTCSICRRNFSRRSSL [Y9Q]  2.32
26. RTHTGEQPYTCSICRTNFSRRSSL [R16T]  2.34
27. RTHTGEQPYTCSICRRFFSRRSSL [N17F]  2.36
28. RTHTGEQPYTCSICRRNGSRRSSL [F18G]  2.38
29. RTHTGEQPLTCSICRRNFSRRSSL [Y9L]  2.39
30. RTHTGEQPYTCSGCRRNFSRRSSL [I13G]  2.42
31. RTHTGEQPYTCSICRMNFSRRSSL [R16M]  2.43
32. RTHTGEQPRTCSICRRNFSRRSSL [Y9R]  2.46
33. RTHTGEQPYTCSICRRWFSRRSSL [N17W]  2.46
34. RTHTGEQPTTCSICRRNFSRRSSL [Y9T]  2.51
35. RTHTGEQPYTCSWCRRNFSRRSSL [I13W]  2.51
36. RTHTGEQPYTCSICRENFSRRSSL [R16E]  2.53
37. RTHTGEQPYTCSACRRNFSRRSSL [I13A]  2.54
38. RTHTGEQPSTCSICRRNFSRRSSL [Y9S]  2.55
39. RTHTGEQPNTCSICRRNFSRRSSL [Y9N]  2.56
40. RTHTGEQPYTCSICRRNCSRRSSL [F18C]  2.57
41. RTHTGEQPVTCSICRRNFSRRSSL [Y9V]  2.58
42. RTHTGEQPYTCSICRRHFSRRSSL [N17H]  2.61
43. RTHTGEQPFTCSICRRNFSRRSSL [Y9F]  2.64
44. RTHTGEQPYTCSFCRRNFSRRSSL [I13F]  2.65
45. RTHTGEQPYTCSDCRRNFSRRSSL [I13D]  2.65
46. RTHTGEQPATCSICRRNFSRRSSL [Y9A]  2.68
47. RTHTGEQPPTCSICRRNFSRRSSL [Y9P]  2.69
48. RTHTGEQPYTCSTCRRNFSRRSSL [I13T]  2.7
49. RTHTGEQPITCSICRRNFSRRSSL [Y9I]  2.71
50. RTHTGEQPYTCSCCRRNFSRRSSL [I13C]  2.71
51. RTHTGEQPYTCSECRRNFSRRSSL [I13E]  2.71
52. RTHTGEQPYTCSSCRRNFSRRSSL [I13S]  2.71
53. RTHTGEQPYTCSQCRRNFSRRSSL [I13Q]  2.74
54. RTHTGEQPYTCSICRRSFSRRSSL [N17S]  2.74
55. RTHTGEQPYTCSICRRGFSRRSSL [N17G]  2.75
56. RTHTGEQPYTCSICRRNDSRRSSL [F18D]  2.76
57. RTHTGEQPYTCSHCRRNFSRRSSL [I13H]  2.81
58. RTHTGEQPYTCSICRRNHSRRSSL [F18H]  2.83
59. RTHTGEQPDTCSICRRNFSRRSSL [Y9D]  2.92
60. RTHTGEQPYTCSICRKNFSRRSSL [R16K]  2.92
61. RTHTGEQPYTCSRCRRNFSRRSSL [I13R]  2.96
62. RTHTGEQPYTCSICRQNFSRRSSL [R16Q]  2.99
63. RTHTGEQPYTCSICRRCFSRRSSL [N17C]  3.01
64. RTHTGEQPHTCSICRRNFSRRSSL [Y9H]  3.02
65. RTHTGEQPWTCSICRRNFSRRSSL [Y9W]  3.02
66. RTHTGEQPETCSICRRNFSRRSSL [Y9E]  3.15
67. RTHTGEQPYTCSICRRQFSRRSSL [N17Q]  3.17
68. RTHTGEQPYTCSVCRRNFSRRSSL [I13V]  3.18
69. RTHTGEQPYTCSICRRAFSRRSSL [N17A]  3.22
70. RTHTGEQPGTCSICRRNFSRRSSL [Y9G]  3.29
71. RTHTGEQPYTYSICRRNFSRRSSL [C11Y]  3.3
72. RTHTGEQPYTGSICRRNFSRRSSL [C11G]  3.37
73. RTHTGEQPYTCSPCRRNFSRRSSL [I13P]  3.44
74. RTHTGEQPYTCSICRRNASRRSSL [F18A]  3.47
75. RTHTGEQPYTCSKCRRNFSRRSSL [I13K]  3.5
76. RTHTGEQPYTLSICRRNFSRRSSL [C11L]  3.61
77. RTHTGEQPYTVSICRRNFSRRSSL [C11V]  3.61
78. RTHTGEQPYTCSNCRRNFSRRSSL [I13N]  3.72
79. RTHTGEQPYTFSICRRNFSRRSSL [C11F]  3.73
80. RTHTGEQPYTRSICRRNFSRRSSL [C11R]  3.74
81. RTHTGEQPYTWSICRRNFSRRSSL [C11W]  3.77
82. RTHTGEQPYTISICRRNFSRRSSL [C11I]  3.79
83. RTHTGEQPYTSSICRRNFSRRSSL [C11S]  3.86
84. RTHTGEQPYTASICRRNFSRRSSL [C11A]  3.92
85. RTHTGEQPYTKSICRRNFSRRSSL [C11K]  3.93
86. RTHTGEQPYTHSICRRNFSRRSSL [C11H]  3.94
87. RTHTGEQPYTNSICRRNFSRRSSL [C11N]  4
88. RTHTGEQPYTMSICRRNFSRRSSL [C11M]  4.07
89. RTHTGEQPYTESICRRNFSRRSSL [C11E]  4.09
90. RTHTGEQPCTCSICRRNFSRRSSL [Y9C]  4.17
91. RTHTGEQPYTPSICRRNFSRRSSL [C11P]  4.22
92. RTHTGEQPYTDSICRRNFSRRSSL [C11D]  4.34
93. RTHTGEQPYTQSICRRNFSRRSSL [C11Q]  4.39
94. RTHTGEQPYTTSICRRNFSRRSSL [C11T]  4.58
